This note sets out measurements from US20090181041A1 (published 2009).

The target in assay [1] is T1, Recombinant human macrophage mannose receptor (MMR) (human, UniProt P22897 19-1383, limits assumed).
T1 construct: Bought; Amine-coupled to a CM5 chip at 13745 RU; also called CD206
T1 sequence (looked up): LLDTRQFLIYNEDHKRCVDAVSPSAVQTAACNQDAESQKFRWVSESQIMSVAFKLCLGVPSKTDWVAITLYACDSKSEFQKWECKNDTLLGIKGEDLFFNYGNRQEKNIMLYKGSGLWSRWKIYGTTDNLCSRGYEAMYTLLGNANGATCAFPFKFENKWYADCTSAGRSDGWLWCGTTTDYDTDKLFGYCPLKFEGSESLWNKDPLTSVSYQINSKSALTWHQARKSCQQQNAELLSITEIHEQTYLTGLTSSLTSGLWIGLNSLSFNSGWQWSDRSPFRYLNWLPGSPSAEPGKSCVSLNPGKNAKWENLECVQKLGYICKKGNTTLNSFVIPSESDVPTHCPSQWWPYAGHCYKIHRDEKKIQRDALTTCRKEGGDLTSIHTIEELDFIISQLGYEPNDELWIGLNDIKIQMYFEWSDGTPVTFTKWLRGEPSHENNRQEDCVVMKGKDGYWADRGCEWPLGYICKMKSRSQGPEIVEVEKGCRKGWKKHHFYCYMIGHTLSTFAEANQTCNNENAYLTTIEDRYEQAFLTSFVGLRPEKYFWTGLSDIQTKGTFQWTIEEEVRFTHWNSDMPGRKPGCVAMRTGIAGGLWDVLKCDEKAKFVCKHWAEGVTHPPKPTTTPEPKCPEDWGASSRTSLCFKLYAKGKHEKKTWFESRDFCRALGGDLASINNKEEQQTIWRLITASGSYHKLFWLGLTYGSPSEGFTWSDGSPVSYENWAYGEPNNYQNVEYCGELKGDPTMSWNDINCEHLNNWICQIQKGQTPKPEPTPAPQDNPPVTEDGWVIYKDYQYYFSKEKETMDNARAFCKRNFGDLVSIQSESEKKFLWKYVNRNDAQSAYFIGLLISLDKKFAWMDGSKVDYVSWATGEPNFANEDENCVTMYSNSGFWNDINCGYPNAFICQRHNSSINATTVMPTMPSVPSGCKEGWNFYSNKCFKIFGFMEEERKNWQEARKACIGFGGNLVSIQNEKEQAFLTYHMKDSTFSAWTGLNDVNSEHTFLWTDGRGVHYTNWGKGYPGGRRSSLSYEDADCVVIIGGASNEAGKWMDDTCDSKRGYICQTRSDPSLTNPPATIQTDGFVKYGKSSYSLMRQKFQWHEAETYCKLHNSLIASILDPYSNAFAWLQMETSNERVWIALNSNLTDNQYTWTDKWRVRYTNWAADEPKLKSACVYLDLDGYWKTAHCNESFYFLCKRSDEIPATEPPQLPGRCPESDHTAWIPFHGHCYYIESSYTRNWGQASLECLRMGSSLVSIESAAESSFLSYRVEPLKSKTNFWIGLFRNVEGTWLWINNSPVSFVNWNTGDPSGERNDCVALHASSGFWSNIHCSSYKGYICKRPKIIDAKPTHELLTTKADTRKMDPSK
The assay can be described thus: SPR (Biacore 2000), receptor amine-coupled on CM5 chip, fusion protein as analyte, apparent Kd from steady state. As to the method: (§1) Immunoglobulin fusion proteins of PSGL-1 and AGP produced in wild type Pichia and purified, as described in Example 1, were used in experiments to assess their ability to bind to recombinant human macrophage mannose receptor (MMR), DC-SIGN/Fc chimera and mannan binding lectin (MBL) Using Biacore (real time surface plasmon resonance spectroscopy) analysis as follows.
(§2) Analyses were performed using a Biacore 2000 instrument (Biacore, GE Healthcare, Uppsala, Sweden). Recombinant human macrophage mannose receptor (MMR), DC-SIGN/Fc chimera and mannan binding lectin (MBL) were purchased from R & D Systems and immobilized on a CM5 sensor chip using amine coupling chemistry according to the manufacturer's instructions. Briefly, activation of the surface was made with EDC/NHS 1:1, 10 μL/min for 7 minutes and the receptors were dissolved in sodium acetate buffer pH 4.5 at concentrations of 15 μg/ml for MMR, 10 μg/ml for DC-SIGN and 90 μg/ml for MBL and immobilized at 10 μl/min for 7 minutes. Deactivation of excess of reactive groups was made with ethanolamine, 20 μl/min for 7 minutes. […] Data were calculated using BIAevaluation 4.1 software (Biacore, GE Healthcare) and the apparent equilibrium dissociation constants (Kd) were calculated by plotting steady state binding levels against the analyte concentrations for several concentrations simultaneously. […]
On the technique in general: Surface plasmon resonance follows binding to a sensor surface in real time, without labels.

The target of assay [2] is T2, DC-SIGN/Fc chimera (human, UniProt Q9NNX6 62-404).
T2 construct: Amine-coupled to a CM5 chip at 8312 RU; also called CD209; dendritic cell-specific ICAM-3-grabbing nonintegrin; Fc part of the bought chimera not given
T2 sequence (looked up): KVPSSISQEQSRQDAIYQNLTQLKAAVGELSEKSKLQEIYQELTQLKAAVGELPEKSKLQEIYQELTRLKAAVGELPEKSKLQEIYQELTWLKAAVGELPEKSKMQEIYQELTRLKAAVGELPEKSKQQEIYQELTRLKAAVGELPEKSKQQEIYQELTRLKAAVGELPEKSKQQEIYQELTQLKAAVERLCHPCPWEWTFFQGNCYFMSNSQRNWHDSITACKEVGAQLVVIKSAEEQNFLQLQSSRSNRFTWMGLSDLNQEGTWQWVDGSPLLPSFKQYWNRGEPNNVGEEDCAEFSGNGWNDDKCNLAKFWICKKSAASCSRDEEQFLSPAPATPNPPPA
Described as above. As for the experimental part:
as §1, §2

B1: PSGL-1/mIgG2b fusion protein produced in Pichia pastoris (Fc fusion, UniProt Q14242 18-320, looked up)
chain: LQLWDTWADEAEKALGPLLARDRRQATEYEYLDYDFLPETEPPEMLRNSTDTTPLTGPGTPESTTVEPAARRSTGLDAGGAVTELTTELANMGNLSTDSAAMEIQTTQPAATEAQTTQPVPTEAQTTPLAATEAQTTRLTATEAQTTPLAATEAQTTPPAATEAQTTQPTGLEAQTTAPAAMEAQTTAPAAMEAQTTPPAAMEAQTTQTTAMEAQTTAPEATEAQTTQPTATEAQTTPLAAMEALSTEPSATEALSMEPTTKRGLFIPFSVSSVTHKGIPMAASNLSVNYPVGAPDHISVKQC
modifications: O-linked mannose glycans (Hex2-9) and N-linked glycans from expression in P. pastoris; sites not given
notes: extracellular domain; Homodimeric chimeric glycoprotein, about 250-300 kDa, secreted from P. pastoris GS115 by the pPICZalpha vector and purified on MabSelect SuRe; also called PSGL-1/mlgG2b; Pp/PSGL1-mIgG2b; not shown: Fc part of mouse IgG2b
On to B1, for which the Kd in assay [1] was found to be 76.7 nM; in assay [2] it was 8.82 nM.
